Results reported in patent US20260169005A1.

Experiments:
[1] = biological target: MSLN; test: ELISA on MSLN at pH 7, column 6.25 nM
[2] = biological target: MSLN; test: ELISA on MSLN at pH 7, column 100 nM
[3] = biological target: MSLN; test: ELISA on MSLN at pH 7, column 1.5625 nM
[4] = biological target: MSLN; test: ELISA on MSLN at pH 6, column 6.25 nM
[5] = biological target: MSLN; test: ELISA on MSLN at pH 7, column 25 nM
[6] = biological target: MSLN; test: ELISA on MSLN at pH 6, column 100 nM
[7] = biological target: MSLN; test: ELISA on MSLN at pH 6, column 25 nM
[8] = biological target: MSLN; test: ELISA on MSLN at pH 6, column 1.5625 nM

In the case of NC, the ELISA reading at 6.25nM, pH=7 [1] is reported as 0.0318, the ELISA reading at 100nM, pH=7 [2] is reported as 0.0239 and the ELISA reading at 1.5625nM, pH=7 [3] is reported as 0.0385. It also gave an ELISA reading at 6.25nM, pH=6 [4] of 0.0183, an ELISA reading at 25nM, pH=7 [5] of 0.0354 and an ELISA reading at 100nM, pH=6 [6] of 0.0154. The ELISA reading at 25nM, pH=6 [7] was 0.0152 and the ELISA reading at 1.5625nM, pH=6 [8] was 0.026.
